Laboratory results taken from paper PMC4754659, “Differential regulation of taurine biosynthesis in rainbow trout and Japanese flounder” (Scientific Reports, 2016).
Changes are numbered by the printed parent chain. Numbers in names are those of the source.

B1: rainbow trout CDO (Oncorhynchus mykiss) (protein)
chain: MDQTELLKPETLDDLIKVLHKIFESDNINVEEVQNIMEAYDSNPQEWMKFAKFDQFRYTRNLVDEGNGKFNLMILCWGEGHGSSIHDHTDSHCFMKLLQGQLKETLFEWPDKKTCNMVQKSQRILQTNQCAYINDSFGLHRVENASHTECSASLHLYSPPFKTCQTFDQRTGHKNTVKMTFWSKFGERTPFETTVSQENN
notes: full-length ORF (200 aa printed, ORF 600 bp), N-terminal 6xHis tag, pET-28a, E. coli BL21(DE3), HisTrap and Superdex 200, iron supplemented; partly Cys-Tyr crosslinked
B2: Japanese flounder CSD (Paralichthys olivaceus) (protein)
chain: MNEPLLDNSEGQLFLTEAFKVIVEEVLCKGTDVKEKVCEWREPEELAALLDLELRENGEPQHQLLQRIRDVAKYSVKTSHPRFFNQQFAGVDYHSLAGRFLTESLNTNLFTYEVAPVFVLMETEVLRGLRQLVGWTEGDGIFCPGGSTSNMYAMNLARYRLFPEVKTQGLWGLPRLTVFTSQESHYSVKKGAGFLGLGTDNVILVKVDDGGRMIPSDLDEKITLTKSQGAVPFLVSCTAGTTVQGAFDPLDHIADVCEKHKLWLHVDAAWGGSVLFSKQHRHLMKGVDRANSVAWNPHKMLVAGLQCSALLLKDTTNLLKQCHCASATYLFQQDKFYDVNLDIGDKSLQCSRKVDCLKLWLMWKAVGSNGLAERVDKAFFHVRYLVEQMKKREGFHLLGQPEFVNVCFWYIPPSLRGKEGDSDYQDRLAKVAPVIKERMVKQGTMMVGYQPLANRVNFFRVIIFSPLISQRDIDFFLDEIERLGNDL
notes: full-length ORF (487 aa printed, ORF 1461 bp), N-terminal 6xHis tag, pET-28a, E. coli BL21(DE3), HisTrap and Superdex 200
B3: Japanese flounder CSD (Paralichthys olivaceus; F110Y/N108S) (protein)
chain: B2 chain with N108S, F110Y
notes: as for B2
B4: rainbow trout CSD (Oncorhynchus mykiss) (protein)
chain: MSHLPRFWNLGWSSFLDWWSNQSVVSEQGPSPLYGQQEMNEPLLDNSEGQLFLTEAFKVIVEEVLCKGTDVKEKVCEWREPEELAALLDLELRENGEPQHQLLQRIRDVAKYSVKTNHPRFFNQLFAGVDYHALTGRFLTEALNTSQYTYEVAPVFVLMEDEVLSKLRSLVGWAEGDGIFCPGGTMSNMYAMNVARYRAFPEVKLKGMWSLPRLAVFTSQQSHYSVMKAAAFQGIGTENVFKVKVDDRGCMIPEDLGETIELAKSQGAVPFFVHATSGTTVQGAFDPLEPIADICDRQGLWMHVDAAWGGSVLFSKEHKHLMRGVERADSVTWNPHKMMLTGLQCSAILLKDTTHLLKHCHSADAKYLFQQDKFYDTSLDTGDKSIQCGRKVDCLKLWLMWKAVGSKGLEERVDRAFTHTRYLVEEMKRREGFELIGKPLFVNVCFWFIPPSLRGKENSPDYNDRLSKVAPVIKERMMKQGTMMLGYQPQGGRVNFFRMIVISPQLSHQDMTFCLNEIERLGSDL
notes: full-length ORF (525 aa, ORF 1575 bp), N-terminal 6xHis tag, pET-28a, E. coli BL21(DE3), HisTrap and Superdex 200
B5: rainbow trout CSD (Oncorhynchus mykiss; S146N/Y148F) (protein)
chain: B4 chain with S146N, Y148F
notes: as for B4
B6: Japanese flounder CDO (Paralichthys olivaceus) (protein)
chain: MEHTELLKPETLDELIKTLHDIFDSDCINVEEVQGVMESYESKPQEWMKYAKFDQYRYTRNLVDEGNGKFNLMILCWGEGHGSSIHDHTDSHCFMKLLQGQLKETLFEWPDCQSHGDMVQRSQRILQENKVAYINDSLGLHRVENVSHTECAVSLHLYSPPFQACQTFDQRTGHRNTVKMTFWSKYGERTPFETTVSQENN
notes: full-length ORF (201 aa printed, ORF 603 bp), N-terminal 6xHis tag, pET-28a, E. coli BL21(DE3), HisTrap and Superdex 200, iron supplemented; partly Cys-Tyr crosslinked

Tests used:
[1] = substrate: N[C@@H](CS)C(=O)O; experiment: HPLC of CSA product (OPA derivatised); type: biochemical, Oncorhynchus mykiss; conditions: MES 62.5 mM (pH 6.1 given for tissue buffer), 0.3 mM ferrous sulfate, 62.5 μM bathocuproine disulfonate, O2 (air), 37 °C, fit at 0–4 mM, substrate inhibition above 4 mM
[2] = substrate: N[C@@H](CS(=O)O)C(=O)O; experiment: HPLC of hypotaurine product (OPA derivatised); type: biochemical, Paralichthys olivaceus; conditions: 100 mM NaH2PO4, 10 μM PLP, 37 °C, 10 min, CSA 0–15 mM, pH not given for assay (enzyme buffer pH 7.4)
[3] = substrate: N[C@@H](CS(=O)O)C(=O)O; experiment: HPLC of hypotaurine product (OPA derivatised); type: biochemical, Oncorhynchus mykiss; conditions: 100 mM NaH2PO4, 10 μM PLP, 37 °C, 10 min, CSA 0–15 mM, pH not given for assay (enzyme buffer pH 7.4)
[4] = substrate: N[C@@H](CS)C(=O)O; experiment: HPLC of CSA product (OPA derivatised); type: biochemical, Paralichthys olivaceus; conditions: MES 62.5 mM (pH 6.1 given for tissue buffer), 0.3 mM ferrous sulfate, 62.5 μM bathocuproine disulfonate, O2 (air), 37 °C, fit at 0–4 mM, substrate inhibition above 4 mM

Protein | Km [2] | kcat [2] | Km [3] | kcat [3] | also measured
B1 |  |  |  |  | Km [1]: 790 ± 90 µM; kcat [1]: 16.72 ± 0.67 s⁻¹
B2 | 3450 ± 380 µM | 1.52 ± 0.13 s⁻¹ |  |  | 
B3 | 1830 ± 170 µM | 6.26 ± 0.20 s⁻¹ |  |  | 
B4 |  |  | 2300 ± 240 µM | 4.72 ± 0.36 s⁻¹ | 
B5 |  |  | 2730 ± 270 µM | 1.86 ± 0.07 s⁻¹ | 
B6 |  |  |  |  | Km [4]: 1230 ± 150 µM; kcat [4]: 29.36 ± 1.52 s⁻¹
